B1: chicken ASIC1a Δ25 crystallization construct (residues 25-463 of chicken ASIC1) (domain or fragment, UniProt Q1XA76 25-463, looked up)
chain: SSTLHGISHIFSYERLSLKRVVWALCFMGSLALLALVCTNRIQYYFLYPHVTKLDEVAATRLTFPAVTFCNLNEFRFSRVTKNDLYHAGELLALLNNRYEIPDTQTADEKQLEILQDKANFRNFKPKPFNMLEFYDRAGHDIREMLLSCFFRGEQCSPEDFKVVFTRYGKCYTFNAGQDGKPRLITMKGGTGNGLEIMLDIQQDEYLPVWGETDETSFEAGIKVQIHSQDEPPLIDQLGFGVAPGFQTFVSCQEQRLIYLPPPWGDCKATTGDSEFYDTYSITACRIDCETRYLVENCNCRMVHMPGDAPYCTPEQYKECADPALDFLVEKDNEYCVCEMPCNVTRYGKELSMVKIPSKASAKYLAKKYNKSEQYIGENILVLDIFFEALNYETIEQKKAYEVAGLLGDIGGQMGLFIGASILTVLELFDYAYEVIKHR
notes: chicken ASIC1 (acid sensing ion channel 1a), residues 25-463; 24 residues removed from the amino-terminus and 64 from the carboxy-terminus; Homotrimeric channel; three subunits around a molecular 3-fold axis in the P212121 crystals; also called resting channel; cASIC1a
B2: chicken ASIC1a Δ13 crystallization construct (residues 14-463 of chicken ASIC1) (domain or fragment, UniProt Q1XA76 14-463, looked up)
chain: GQPVSIQAFASSSTLHGISHIFSYERLSLKRVVWALCFMGSLALLALVCTNRIQYYFLYPHVTKLDEVAATRLTFPAVTFCNLNEFRFSRVTKNDLYHAGELLALLNNRYEIPDTQTADEKQLEILQDKANFRNFKPKPFNMLEFYDRAGHDIREMLLSCFFRGEQCSPEDFKVVFTRYGKCYTFNAGQDGKPRLITMKGGTGNGLEIMLDIQQDEYLPVWGETDETSFEAGIKVQIHSQDEPPLIDQLGFGVAPGFQTFVSCQEQRLIYLPPPWGDCKATTGDSEFYDTYSITACRIDCETRYLVENCNCRMVHMPGDAPYCTPEQYKECADPALDFLVEKDNEYCVCEMPCNVTRYGKELSMVKIPSKASAKYLAKKYNKSEQYIGENILVLDIFFEALNYETIEQKKAYEVAGLLGDIGGQMGLFIGASILTVLELFDYAYEVIKHR
notes: chicken ASIC1 (acid sensing ion channel 1a), residues 14-463; 13 residues removed from the amino-terminus and 64 from the carboxy-terminus; Homotrimeric channel; crystals in space group H3; also called desensitized channel; cASIC1a

What was measured:
[1] = target: the molecule itself; assay: crystal structure; Δ25 crystals grown at high pH (Tris pH 8.5) with BaCl2, soaked in 50 mM BaCl2 or 150 mM NaBr; space group P212121; resting state; anomalous diffraction
[2] = target: the molecule itself; assay: crystal structure; Δ13 crystals grown at 20°C, HEPES pH 6.9, sodium formate, PEG 3,350, soaked in 50 mM BaCl2; space group H3; desensitized state; anomalous diffraction

Protein | binding result [1] | binding result [2]
B1 | binds | –
B2 | – | binds

— article PMC6114778, “Divalent cation and chloride ion sites of chicken acid sensing ion channel 1a elucidated by x-ray crystallography” (PLoS ONE, 2018)
